Legend:
[1] = biological target: T1, recombinant hIL-6R protein, monomeric form (human, UniProt P08887 20-358); test: SPR (BIAcore), antibody captured on goat anti-mouse Fc, monomeric IL-6R 1.25-40 nM injected
T1 construct: also called monomeric hIL-6R; Human IL6R
T1 sequence: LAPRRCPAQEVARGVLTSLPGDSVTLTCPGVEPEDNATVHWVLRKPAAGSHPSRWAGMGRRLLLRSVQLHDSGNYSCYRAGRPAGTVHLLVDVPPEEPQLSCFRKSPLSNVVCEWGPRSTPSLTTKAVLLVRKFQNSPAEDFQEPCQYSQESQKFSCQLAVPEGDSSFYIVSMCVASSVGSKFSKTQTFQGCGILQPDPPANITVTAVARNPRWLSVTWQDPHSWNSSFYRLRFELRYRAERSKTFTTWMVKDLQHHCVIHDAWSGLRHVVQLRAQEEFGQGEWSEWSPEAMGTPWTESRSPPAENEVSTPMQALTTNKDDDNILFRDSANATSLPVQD
Procedure: (§1) Four antibodies were tested for cross-reactivity to monkey IL-6R recombinant protein using BIAcore™ technology. Briefly, a biosensor chip on which goat anti-mouse Fc polyclonal antibody was immobilized was used to present anti-hIL-6R monoclonal antibodies to a density of about 75 RU. […] The binding of the receptor to the antibody and the dissociation of the bound complex were monitored in real-time.

[2] = biological target: T1, recombinant hIL-6R protein, monomeric …; test: SPR (BIAcore), captured antibody, monomeric hIL-6R
Procedure: as §1

[3] = biological target: T2, hIL-6R recombinant protein (plate-coated, Example 5) (human, UniProt P08887 20-358, limits assumed); test: competition ELISA on hIL-6R-coated plate presaturated with competitor control antibody; test antibody 50 ng/ml
T2 construct: also called antigen
T2 sequence: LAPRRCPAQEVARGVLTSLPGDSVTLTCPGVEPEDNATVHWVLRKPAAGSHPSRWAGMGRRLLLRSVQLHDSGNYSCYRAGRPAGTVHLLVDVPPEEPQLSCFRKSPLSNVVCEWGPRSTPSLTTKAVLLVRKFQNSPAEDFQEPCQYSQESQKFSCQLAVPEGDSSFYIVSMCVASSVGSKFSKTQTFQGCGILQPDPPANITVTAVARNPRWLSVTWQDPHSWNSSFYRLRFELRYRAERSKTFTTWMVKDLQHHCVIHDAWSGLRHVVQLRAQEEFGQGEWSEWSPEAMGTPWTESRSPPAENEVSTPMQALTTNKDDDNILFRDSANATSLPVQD
Procedure: An antibody binding competition immunoassay was performed using as a control humanized antibody to human IL-6R. Briefly, a 96-well immunosorbent plate was coated with 20 ng per well hIL-6R recombinant protein overnight at 4° C. […] After one hour of additional binding, the free antibody was washed away and the plate-bound antibody was detected with HRP-conjugated goat anti-mouse IgG or IgA, polyclonal antibody and the plate was developed using chromatic HRP substrates and absorbance at 450 nm was recorded.

hIL-6R-hFc [4] = biological target: T3, hIL-6R-hFc (human, UniProt P08887 20-358); test: SPR (BIAcore): hIL-6R-hFc captured, antibody injected, then 50 nM hIL-6; percent reduction in hIL-6 binding
T3 construct: also called dimeric hIL-6R; Dimer; not shown: human Fc (hFc)
T3 sequence: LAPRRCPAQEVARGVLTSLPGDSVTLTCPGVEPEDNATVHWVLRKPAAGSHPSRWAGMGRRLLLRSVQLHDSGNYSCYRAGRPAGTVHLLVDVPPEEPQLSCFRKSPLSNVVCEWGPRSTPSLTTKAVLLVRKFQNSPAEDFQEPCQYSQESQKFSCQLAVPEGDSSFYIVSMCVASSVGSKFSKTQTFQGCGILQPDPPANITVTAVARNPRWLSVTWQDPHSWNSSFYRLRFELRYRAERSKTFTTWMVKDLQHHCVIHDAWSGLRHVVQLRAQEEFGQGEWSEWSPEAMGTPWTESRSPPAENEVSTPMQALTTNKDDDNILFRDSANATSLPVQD

[5] = biological target: T1, recombinant hIL-6R protein, monomeric …; test: Kinexa solution-phase competition immunoassay, monomeric hIL-6R
hIL-6R-hFc [6] = biological target: T3, hIL-6R-hFc; test: competition ELISA: antibody premixed with serial dilutions of hIL-6R-hFc, free antibody detected on hIL-6R-hFc-coated plate
Procedure: Binding affinities of the antibodies to hIL-6R was also measured for either hybridoma-conditioned media or purified proteins by plate-based competition immunoassay. […] For the competition ELISA, briefly, constant amounts of antibody at different levels were premixed with serial dilutions of antigen protein, hIL-6R-hFc, ranging from 0 to 10 μg/ml, and incubated for two hours at room temperature to reach pseudo-binding equilibrium between the antibody and antigen. These solutions were then transferred to 96-well hIL-6R-hFc pre-coated plates to allow the free-antibody in the mixtures to bind to plate-coated hIL-6R-hFc. The plates were typically coated with 1 to 2 μg/ml hIL-6R-hFc protein in PBS solution overnight at 4° C. followed by BSA nonspecific blocking. After washing off excess antibody in solution, plate-bound antibodies were detected with an HRP-conjugated goat anti-mouse IgG or IgA polyclonal antibody reagent and developed using either colorimetric or chemiluminescence substrates. The dependency of the signals on the concentrations of antigen in solution was analyzed with a 4-parameter fit analysis using Prism™ software (Graph Pad) and reported as IC₅₀.

hIL-6R-hFc [7] = biological target: T3, hIL-6R-hFc; test: SPR (BIAcore), antibody captured on anti-mouse IgG surface, dimeric hIL-6R
Procedure: (§2) More specifically, the affinity of the antibodies for human IL-6R was measured using a BIAcore® 2000 or BIAcore® 3000. The antibody was captured on an anti-mouse IgG surface and exposed to various concentrations of recombinant hIL-6R protein either in monomeric or dimeric form. Kinetic analysis using BIAevaluation™ software was performed to obtain the association and dissociation rate constants.

[8] = biological target: T2, hIL-6R recombinant protein …; test: SPR (BIAcore) competition on hIL-6R; competitor: control antibody
[9] = biological target: T4, hIL-6R on hIL-6-responsive human cells (XG-1 myeloma line, HepG2 hepatoma line) (human, UniProt P08887 20-468); test: cell-based or functional assay
T4 sequence (looked up): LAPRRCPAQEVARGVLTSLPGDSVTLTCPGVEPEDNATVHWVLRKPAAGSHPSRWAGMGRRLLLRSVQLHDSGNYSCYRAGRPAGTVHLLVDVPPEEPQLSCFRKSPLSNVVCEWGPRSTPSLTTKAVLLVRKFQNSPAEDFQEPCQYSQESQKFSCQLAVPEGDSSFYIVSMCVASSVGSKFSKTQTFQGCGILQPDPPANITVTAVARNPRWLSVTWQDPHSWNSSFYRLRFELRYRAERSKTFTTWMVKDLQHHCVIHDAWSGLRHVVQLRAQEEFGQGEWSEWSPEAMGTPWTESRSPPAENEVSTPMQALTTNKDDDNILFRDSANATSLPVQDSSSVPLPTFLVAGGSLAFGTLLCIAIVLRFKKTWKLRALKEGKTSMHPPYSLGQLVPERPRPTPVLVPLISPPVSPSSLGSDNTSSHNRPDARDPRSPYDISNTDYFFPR

[10] = biological target: T4, hIL-6R on hIL-6-responsive human cells …; test: cell-based or functional assay; remark: listed apart in the source
[11] = biological target: T1, recombinant hIL-6R protein, monomeric …; test: SPR (BIAcore), captured mouse-IgG antibody, monomeric hIL-6R 1.56-12.5 nM
Source text: Briefly, a biosensor chip on which goat anti-mouse Fc polyclonal antibody was immobilized was used to present anti-hIL-6R monoclonal antibodies to a density of about 75 RU. […] The binding of the receptor to the antibody and the dissociation of the bound complex were monitored in real-time. Both association rate constant (ka) and dissociate rate constant (kd) were obtained, and KD calculated (Table 4).
The binding affinity to monomeric hIL-6R of four antibodies having mouse IgG, human IgG1 or human IgG4 (wild-type and modified) were determined using BIAcore™ as described above except a goat anti-human Fc polyclonal antibody surface was used to capture hIgG antibodies.

hIL-6R-hFc [12] = biological target: T3, hIL-6R-hFc; test: blocking ELISA: 100 pM hIL-6R-hFc premixed with varied antibody, free hIL-6R-hFc captured on hIL-6-coated plate
Procedure: This plate was used to capture free hIL-6R-hFc from antibody sample solutions, and the amount of captured hIL-6R-hFc was quantified according to the standard curve. The sample solutions were composed of a constant amount of hIL-6R-hFc recombinant protein (100 pM) and varying amounts of antibody, either in crude hybridoma condition medium or as purified antibody protein, ranging from 0 to about 50 nM in serial dilutions. The antibody-antigen mixtures were incubated at room temperature for ˜2 hours to allow antibody-antigen binding to reach equilibrium. […] After 1 hour binding, the plate was washed and bound hIL-6R-hFc was detected using HRP-conjugated goat anti-hFc polyclonal antibodies (Jackson Immuno Research), and developed using TMB substrate (BD Pharmigen).

[13] = biological target: T1, recombinant hIL-6R protein, monomeric …; test: SPR (BIAcore), antibody captured on anti-mouse IgG surface, monomeric hIL-6R
Procedure: as §2

[14] = biological target: T5, Recombinant monkey monomeric IL-6R protein (Macaca fascicularis, extracellular domain) (Macaca fascicularis, UniProt P08887 21-330 (human entry)); test: SPR (BIAcore), antibody captured on goat anti-mouse Fc, monomeric monkey IL-6R injected
T5 construct: also called Monkey IL6R; monkey IL-6R
T5 chain: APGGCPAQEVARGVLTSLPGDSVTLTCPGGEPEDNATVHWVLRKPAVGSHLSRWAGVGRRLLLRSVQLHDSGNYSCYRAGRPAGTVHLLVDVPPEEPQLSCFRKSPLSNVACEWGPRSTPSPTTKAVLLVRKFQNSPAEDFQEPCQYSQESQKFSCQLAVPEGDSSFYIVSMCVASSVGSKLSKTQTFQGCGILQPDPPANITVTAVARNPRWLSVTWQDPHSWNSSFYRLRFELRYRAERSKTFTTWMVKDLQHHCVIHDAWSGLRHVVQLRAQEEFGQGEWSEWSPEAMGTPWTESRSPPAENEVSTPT
Procedure: as §1

hIL-6R-hFc [15] = biological target: T3, hIL-6R-hFc; test: SPR (BIAcore), captured antibody, dimeric hIL-6R
Procedure: as §2

[16] = biological target: T1, recombinant hIL-6R protein, monomeric …; test: SPR (BIAcore), captured antibody, monomeric hIL-6R; remark: listed apart in the source
Procedure: as §2

B1: VV1G4-7 (antibody, IgG2a, V domains shown)
VH: QVQLVQSGAEVKEPGASVKVSCKASGYTFTSYDIIWVRQATGQGLEWMGWMNPNSGNTGYTQNLQGRVTLTRNTSITTVYMELSSLSSEDTAVYYCARDYSSHYYGLDVWGQGTTVTVSS
VL: DIQLTQSPSFLSTSIGDRVTITCWASQDISNYLAWYQQKPGKAPKLLIFVASTLQSGVPSRFSGSGSGTEFTLTISSLQPEDFATYYCQQFNSYPLTFGGGTKVEIK
notes: Human variable regions with mouse constant region
Work on B1 yielded a Kd [1] of 0.24 nM, a koff [1] of 6.18e-05 s⁻¹ and a kon [1] of 257000 M⁻¹ s⁻¹. For the same binder, the Kd [2] was 0.241 nM, the “% reduction of binding by control antibody” value [3] was 3% and the “hIL6/hIL6R Binding Inhibition (%)” value (hIL-6R-hFc [4]) was 34%. For the same binder, the Kd [5] was 0.197 nM, the IC50 (hIL-6R-hFc [6]) was 0.041 nM and the Kd (hIL-6R-hFc [7]) was 0.07 nM. For the same binder, the “% reduction of binding by control antibody” value [8] was 12%, the “HepG2/STAT3 luciferase assay IC50” value [9] was 0.578 nM and the “HepG2/Stat3 Luciferase activity IC50” value [10] was 0.578 nM. The “XG-1 cell proliferation Inhibition IC50” value [10] was 1.8 nM, the Kd [11] was 0.225 nM and the koff [11] was 7.66e-05 s⁻¹. The kon [11] was 341000 M⁻¹ s⁻¹, the IC50 (hIL-6R-hFc [12]) was 1.1 nM and the Kd [13] was 0.225 nM. B1: no binding (tested: 1.25-40 nM) [14].

B2: 248982-13-1-E5 (antibody, V domains shown)
VH: QVQLVQSGGDLVQPGRSLRLSCAASGFTFDDYAMHWVRQTPGKGLEWVSGISWNSGAIGYADSVKGRFTISRDNAKNSLYLQMNSLRAEDTALYYCTKEEVGATVDYFYFYGMDVWGQGTTVTVSS
VL: EIVMTQSPATLSLSPGERATLSCWASQSVSNYLAWYQQKPGQAPRLLIYDASNRATGIPARFSGSGSGTDFTLTISSLEPEDFAVYYCQQRSNWPTFGQGTKVEIK
Binder B2 has an IC50 (hIL-6R-hFc [6]) of 0.36 nM, a Kd (hIL-6R-hFc [15]) of 0.785 nM and a Kd [16] of 0.987 nM.
